Test results taken from patent publication US20230203107A1, “PEPTIDE FOR TREATING SEPSIS DERIVED FROM RV3364C PROTEIN OF MYCOBACTERIUM TUBERCULOSIS” (priority 2021, published 2023).

Target: T1, SNX9 BAR domain (Homo sapiens, UniProt Q9Y5X1)
T1 construct: different regions 1-595, 1-250, 250-361, and 392-595 of SNX9; expressed in transfected cells; host or cells: 293T (pEF-IRES-Puro expression vector)
Type: cell-based

T1 sequence (Q9Y5X1 392-595): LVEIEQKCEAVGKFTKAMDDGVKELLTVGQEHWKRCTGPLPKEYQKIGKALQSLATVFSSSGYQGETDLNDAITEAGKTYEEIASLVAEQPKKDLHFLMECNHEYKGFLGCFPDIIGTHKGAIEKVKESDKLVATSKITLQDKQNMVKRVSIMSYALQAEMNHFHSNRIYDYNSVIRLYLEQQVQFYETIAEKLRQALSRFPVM

Substance: Rv3364c: Rv3364c protein of Mycobacterium tuberculosis, expressed in 293T cells from a Flag-tagged plasmid
- domain of SNX9 interacting with Rv3364c: interacted with SNX9 through a Bin-Amphiphysin-Rvs (BAR) domain
